Laboratory results taken from patent publication US20260116991A1 (HAINAN SIMCERE ZAIMING PHARMACEUTICAL, published 2026).
Residue numbers refer to the chain shown, from its start.

B1: F1.92.17 (antibody, human IgG1, kappa, V domains shown)
VH: EVQLQQSGPELVKPGASVKMSCKASGYTFTDYNMHWVRQSHGKSLEWIGYINPNNGDTIYNQNFKGKATLTVNKSSSTAYMELRSLTSEDSAVYYCSRTITYYYSMDYWGPGTSVTVSS
VL: QIVLTQSPALMSASPGEKVTMTCSASSSVSYMYWYQQKPRSSPKPWIYLTSNLASGVPARFSGSGSGTSYSLTISSMEAEDAATYYCQQWSSNPLTFGAGTKLELKR
notes: Human-murine chimeric antibody
B2: F1.110.24 (antibody, human IgG1, kappa, V domains shown)
VH: EVKLVESGGGLVQPGGSLKLSCAASGFTFSDFYMYWVRQTPEKRLEWVAFISNGGGSTYYPDTVKGRFTISRDNVKNTLYLQMSRLKSEDTAMYYCARPDTSWFAYWGQGSLVTVSA
VL: DIQMTQTTSSLSASLGDRVTISCRASQDIDNYLNWYQQKPDGTVKVLISYTSRLHSGVPSRFSGSGSGTDYSLTISNLEQEDIATYFCQQGNTLPWTFGGGTKLEIKR
notes: as for B1
B3: F1.111.11 (antibody, human IgG1, kappa, V domains shown)
VH: EVQLQQSGPELVKPGASVKISCKASGYTFTDYYMNWVKQSHGKSLEWIGDIYPNNGDTTYNQRFKGKATLTVDKSSSTAYMELRSLASEDSAVYYCACPYNNPFGYWGQGTLVTVSA
VL: DVVMTQTPLSLPVSLGDQASISCRSSQSLVHSNGNTYLHWYLQKPGQSPKLLIYKVSNRFSGVPDRFSGSGSGTDFTLKISRVEAEDLGVYFCSQSTHVPWTFGGGTKLEIKR
notes: as for B1
B4: F1.115.8 (antibody, human IgG1, kappa, V domains shown)
VH: EVQLQQSGPELVKPGASVKMSCKASGYTFTEYYMHWVKQSHGKSLEWIGYIYPNNGGNGYNQKFKGKATLTVDKSSSTAYMGLRSLTSEDSAVYYCVRGYYSNWYFDVWGTGTTVTVSS
VL: B3 VL with V3L, L29I, N35K, H39E, F92Y, S94F, S96G, T97S, W101F, G105S
notes: as for B1
B5: F1.118.4 (antibody, human IgG1, kappa, V domains shown)
VH: QVQLQQSGAELAKPGASVKLSCKASGYSFTSYWIHWVKQRPGQGLEWIGYINPSSGYTKYNQKFKDKATLTADKSSSTAYMQLSSLTYEDSAVYYCARFGSSSFYFDYWGQGTTLTVSS
VL: DIVLTQSPASLAVSLGQRATISCRASQSVSSSSYSYMHWYQQKPGQPPKLLIKYASNLDSGVPARFSGSGSGTDFTLNIHPVEEEDTATYYCQHSWEIPAFGGGTKLEIKR
notes: as for B1
B6: F2.169.2 (antibody, human IgG1, kappa, V domains shown)
VH: EVQLVETGGGLVQPKGSLKLSCAASGFSFNTNAMNWVRQAPGKGLEWVARIRSKSNNYATYYADSVKDRFTISRDDSQSMLYLQMNNLKTEDTAMYYCVRDGYYVLFAYWGQGTLVTVSA
VL: DVLMTQTPLSLPVSLGDQASISCRFSQSIVNSNGNTYLEWFLQKPGQSPKLLIYKVSNRFSGVPDRFSGSGSGTDFTLKISRVEAEDLGVYYCFQGSHVPFTFGTGTKLEIKR
notes: as for B1

Assays:
[1] = molecular target: T1, monkey GPC3-His protein (monkey); experiment: ELISA, monkey GPC3-His coated;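 further: Plate-coated antigen at 1 µg/mL, antibody binding 2 h at 37 °C, detected with HRP-labeled secondary antibody and TMB, absorbance at 450 nm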
T1 construct: Bought recombinant protein; also called monkey GPC3 protein

[2] = molecular target: T2, monkey GPC3 on HEK293T-monkey GPC3 cells (monkey); experiment: FACS on HEK293T-monkey GPC3 cells;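 further: flow cytometry binding of test antibodies to the cells, read as mean fluorescence intensity, with half-maximal concentration taken from fitted curves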
T2 construct: whole, on cells
Description: The desired cells were expanded to a logarithmic growth phase in a T-75 cell culture flask, the medium was removed by pipetting, and the cells were washed twice with a PBS buffer, and digested with trypsin. Then a complete medium was added to stop the digestion, and the cells were blown into a single cell suspension. After counting, the cells were centrifuged, and the cell pellet was resuspended with an FACS buffer (PBS+2% fetal bovine serum) to 2×10⁶ cells/mL. The cell resuspension solution was added to a 96-well FACS reaction plate at 50 μl/well, and a chimeric antibody sample to be tested was added at 50 μl/well for incubation at 4° C. for 1 h. […] After the plate was centrifuged and washed 3 times with a PBS buffer, 100 μl of the resulting solution was assayed and analyzed by FACS (FACS Canto™, purchased from BD Biosciences). Data analysis was performed by software (FlowJo) to obtain the mean fluorescence intensity (MFI) of the cells. Then, analysis was performed by software (GraphPad Prism8), data were fitted, and EC₅₀ values were calculated.

[3] = molecular target: T3, human GPC3-His protein (human, UniProt P51654 25-559); experiment: SPR, antibody captured on Protein A chip, human GPC3-His analyte;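 further: measured at 25 °C flow cell, human GPC3-His injected at five concentrations up to 200 nM, 240 s association, up to 600 s dissociation, double-referenced, fitted to Langmuir 1:1 model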
T3 construct: also called human GPC3 protein; not shown: His tag

[4] = molecular target: T1, monkey GPC3-His protein; experiment: SPR, antibody captured on Protein A chip, monkey GPC3-His analyte;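 further: run at 25 °C with 240 s association and up to 600 s dissociation, double-referenced, kinetics fitted to a 1:1 Langmuir binding model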

Row | Binder | OD450 at 0.0001 nM [1] | OD450 at 0.001 nM [1] | OD450 at 0.01 nM [1] | OD450 at 0.1 nM [1] | OD450 at 1 nM [1] | OD450 at 10 nM [1] | OD450 at 100 nM [1] | EC50 [2] | Max MFI [2] | Kd [3] | koff [3] | kon [3] | Kd [4] | koff [4] | kon [4]
1 | B1 | 0.05 OD450 | 0.05 OD450 | 0.06 OD450 | 0.15 OD450 | 0.64 OD450 | 0.62 OD450 | 0.58 OD450 | 2.26 nM | 5520 MFI | 7.46 nM | 0.00017 s⁻¹ | 22800 M⁻¹ s⁻¹ | 5.07 nM | 0.000139 s⁻¹ | 27400 M⁻¹ s⁻¹
2 | B2 | 0.05 OD450 | 0.05 OD450 | 0.06 OD450 | 0.29 OD450 | 0.31 OD450 | 0.47 OD450 | 0.41 OD450 | 0.42 nM | 5560 MFI | 2.5 nM | 0.000362 s⁻¹ | 145000 M⁻¹ s⁻¹ | 1.38 nM | 0.000342 s⁻¹ | 248000 M⁻¹ s⁻¹
3 | B3 | 0.06 OD450 | 0.11 OD450 | 0.53 OD450 | 1.91 OD450 | 2.57 OD450 | 2.62 OD450 | 2.66 OD450 | 0.42 nM | 4450 MFI | 6.75 nM | 0.000445 s⁻¹ | 65800 M⁻¹ s⁻¹ | 4.67 nM | 0.000447 s⁻¹ | 95800 M⁻¹ s⁻¹
4 | B4 | 0.05 OD450 | 0.07 OD450 | 0.27 OD450 | 1.33 OD450 | 2.14 OD450 | 2.36 OD450 | 2.26 OD450 | 0.33 nM | 6390 MFI | 1.4 nM | 0.00115 s⁻¹ | 820000 M⁻¹ s⁻¹ | 1.05 nM | 0.00145 s⁻¹ | 1.38e+06 M⁻¹ s⁻¹
5 | B5 | 0.05 OD450 | 0.08 OD450 | 0.28 OD450 | 1.43 OD450 | 2.21 OD450 | 2.32 OD450 | 2.14 OD450 | 0.32 nM | 6220 MFI | 0.472 nM | 0.000118 s⁻¹ | 251000 M⁻¹ s⁻¹ | 0.226 nM | 0.000102 s⁻¹ | 453000 M⁻¹ s⁻¹
6 | B6 | 0.05 OD450 | 0.07 OD450 | 0.27 OD450 | 1.36 OD450 | 2.27 OD450 | 2.64 OD450 | 1.99 OD450 | 0.51 nM | 9880 MFI |  |  |  |  |  | 
